From article PMC6778137, “The midbody interactome reveals unexpected roles for PP1 phosphatases in cytokinesis” (Nature Communications, 2019) come the findings set out here.

The target in this test is T1, MBP::PP1β (UniProt P62140 1-327).
T1 construct: PP1β; Expressed from a derivative of plasmid pMH919 carrying MBP instead of 6His; also called MBP-tagged PP1β; source: S. cerevisiae (strain MGY960), purified on amylose resin, eluted with 20 mM maltose
The test can be described thus: pull-down; GST pull-down: GST::MKLP1_(620–858) proteins on Glutathione Sepharose beads mixed with MBP::PP1β purified from yeast; NET-N+ buffer (50 mM Tris-HCl pH 7.4, 150 mM NaCl, 5 mM EDTA, 0.2% NP-40), 60 min at 4 °C, washes with 250 mM NaCl; western blot. The note with it: both partners purified. On the technique in general: Immunoblotting shows a protein as a band on a membrane.

T1 sequence (P62140 whole entry): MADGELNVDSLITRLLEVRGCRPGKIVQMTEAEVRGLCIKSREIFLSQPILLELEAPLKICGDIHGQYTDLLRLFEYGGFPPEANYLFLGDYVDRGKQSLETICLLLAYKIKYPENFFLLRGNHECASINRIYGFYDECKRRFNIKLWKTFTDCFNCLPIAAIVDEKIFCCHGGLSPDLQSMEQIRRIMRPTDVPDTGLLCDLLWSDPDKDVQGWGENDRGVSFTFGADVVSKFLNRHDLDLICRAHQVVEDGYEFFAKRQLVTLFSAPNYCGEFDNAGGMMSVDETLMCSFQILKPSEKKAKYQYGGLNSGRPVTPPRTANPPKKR

B1: GST::MKLP1_(620–858) (wild type) (domain or fragment, UniProt Q02241-2 620-856, looked up)
chain: ETTMKWEKECERRVAAKQLEMQNKLWVKDEKLKQLKAIVTEPKTEKPERPSRERDREKVTQRSVSPSPVPLLFQPDQNAPPIRLRHRRSRSAGDRWVDHKPASNMQTETVMQPHVPHAITVSVANEKALAKCEKYMLTHQELASDGEIETKLIKGDIYKTRGGGQSVQFTDIETLKQESPNGSRKRRSSTVAPAQPDGAESEWTDVETRCSVAVEMRAGSQLGPGYQHHAQPKRKKP
notes: Cloned into pDEST15; source: E. coli, purified (Glutathione Sepharose 4B), kept on beads; not shown: GST, N-terminal, kept
Take B1: the binding result is reported as “binds”.

B2: GST::MKLP1_(620–858) AQA mutant (domain or fragment, UniProt Q02241-2 620-856, looked up)
chain: ETTMKWEKECERRVAAKQLEMQNKLWVKDEKLKQLKAIVTEPKTEKPERPSRERDREKVTQRSVSPSPVPLLFQPDQNAPPIRLRHRRSRSAGDRWVDHKPASNMQTETVMQPHVPHAITVSVANEKALAKCEKYMLTHQELASDGEIETKLIKGDIYKTRGGGQSAQATDIETLKQESPNGSRKRRSSTVAPAQPDGAESEWTDVETRCSVAVEMRAGSQLGPGYQHHAQPKRKKP
notes: Cloned into pDEST15; also called AQA MKLP1; source: E. coli, purified (Glutathione Sepharose 4B), kept on beads; not shown: GST, N-terminal, kept
Regarding B2, the binding result is recorded as “binds”.
